The values that follow come from US20170304405A1.

What all share (assay): cell-based or functional assay
Assay [1] has as its target GHRH receptor (GHRH-R) (human) (UniProt Q02643).
For the next assay, the target named is GPR101 (human) (UniProt Q96P66).
Assay [2] addresses somatostatin receptor 2 (SSTR2) (human) (UniProt P30874).
The target of assay [3] is somatostatin receptors (multi-somatostatin receptor).

Chain of UniProt Q02643 (Q02643 23-423): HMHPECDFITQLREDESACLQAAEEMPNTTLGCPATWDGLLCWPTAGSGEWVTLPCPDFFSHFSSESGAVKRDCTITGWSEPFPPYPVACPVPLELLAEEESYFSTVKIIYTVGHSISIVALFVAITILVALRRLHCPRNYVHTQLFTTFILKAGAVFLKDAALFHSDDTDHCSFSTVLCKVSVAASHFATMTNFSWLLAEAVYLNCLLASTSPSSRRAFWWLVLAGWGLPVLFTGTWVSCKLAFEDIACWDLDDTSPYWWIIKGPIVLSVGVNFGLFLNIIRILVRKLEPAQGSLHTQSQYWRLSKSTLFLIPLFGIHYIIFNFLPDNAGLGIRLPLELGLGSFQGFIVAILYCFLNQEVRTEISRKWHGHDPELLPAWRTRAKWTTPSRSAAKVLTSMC
Chain of UniProt Q96P66 (Q96P66 whole entry): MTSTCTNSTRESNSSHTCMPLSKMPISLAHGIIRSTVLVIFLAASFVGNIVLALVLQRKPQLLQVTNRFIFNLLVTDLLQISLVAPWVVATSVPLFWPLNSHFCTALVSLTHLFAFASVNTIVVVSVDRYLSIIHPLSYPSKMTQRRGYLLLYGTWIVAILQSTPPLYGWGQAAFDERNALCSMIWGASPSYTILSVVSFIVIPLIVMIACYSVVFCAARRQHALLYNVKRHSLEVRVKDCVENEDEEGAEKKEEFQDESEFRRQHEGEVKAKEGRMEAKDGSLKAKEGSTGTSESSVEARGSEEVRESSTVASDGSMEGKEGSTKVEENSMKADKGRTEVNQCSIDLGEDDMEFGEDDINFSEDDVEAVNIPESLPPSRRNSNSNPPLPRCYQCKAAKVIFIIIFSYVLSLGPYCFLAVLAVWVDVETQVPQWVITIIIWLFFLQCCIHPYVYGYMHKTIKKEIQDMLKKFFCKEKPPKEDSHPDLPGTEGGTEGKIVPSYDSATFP
Chain of UniProt P30874 (P30874 whole entry): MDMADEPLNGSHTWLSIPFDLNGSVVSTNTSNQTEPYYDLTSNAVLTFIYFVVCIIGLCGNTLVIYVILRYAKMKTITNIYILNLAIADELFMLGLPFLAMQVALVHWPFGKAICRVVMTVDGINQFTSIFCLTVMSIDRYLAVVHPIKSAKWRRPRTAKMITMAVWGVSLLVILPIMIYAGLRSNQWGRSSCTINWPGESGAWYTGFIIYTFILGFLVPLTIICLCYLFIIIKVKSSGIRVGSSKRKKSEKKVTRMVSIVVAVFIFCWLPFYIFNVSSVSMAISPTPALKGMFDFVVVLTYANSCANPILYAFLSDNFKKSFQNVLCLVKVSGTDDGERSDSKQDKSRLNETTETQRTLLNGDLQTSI

For the substance “GH releasing hormone (GHRH) (from UniProt P01286 32-75) (ligand)”, in assay [1], the GH secretion by primary X-LAG pituitary tumour cells, % change vs control wells, GHRH at 10^-10 M stood at 410% and the Prolactin secretion by primary X-LAG pituitary tumour cells, % change vs control wells, GHRH at 10^-8 M amounted to 11%.

In the assay with GPR101 (human), “GnRH1-5 (from UniProt P01148 24-28) (peptide)” came in with a GH secretion by primary X-LAG pituitary tumour cells, % change vs control, GnRH1-5 at 10^-10 M of 15%.

As for octreotide (peptide), in assay [2], the Prolactin secretion by primary X-LAG pituitary tumour cells, % change vs control, octreotide at 10^-9 M is -26%.

As for pasireotide (peptide), the GH secretion by primary X-LAG pituitary tumour cells, % change vs control, maximum inhibition at 10^-8 M in assay [3] is -18%.
